Source: publication PMC12363821 (bioRxiv, 2025)
Numbering of substitutions follows the chain as printed.

How the values were obtained:
Experiment in all cases: flow cytometry on cells
[1] = biological target: T1, CD155 Mut (high-affinity mutant variant of CD155, rs1058402, G>A; Ala67Thr) (human, UniProt P15151 21-417, Ala67Thr)
T1 sequence: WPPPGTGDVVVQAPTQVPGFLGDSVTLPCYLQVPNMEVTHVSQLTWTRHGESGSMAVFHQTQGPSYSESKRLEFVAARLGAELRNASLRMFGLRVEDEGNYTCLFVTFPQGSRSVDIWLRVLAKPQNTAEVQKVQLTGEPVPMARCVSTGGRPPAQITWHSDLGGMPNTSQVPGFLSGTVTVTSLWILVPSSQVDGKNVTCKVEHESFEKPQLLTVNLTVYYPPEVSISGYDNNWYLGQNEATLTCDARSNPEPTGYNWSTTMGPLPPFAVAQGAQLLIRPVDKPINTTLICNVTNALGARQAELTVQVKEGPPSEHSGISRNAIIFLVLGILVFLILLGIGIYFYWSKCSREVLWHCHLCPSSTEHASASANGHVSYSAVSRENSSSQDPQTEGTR

[2] = biological target: T2, CD155 WT (wild-type CD155; poliovirus receptor, PVR) (human), P15151; settings: remark: other sources report otherwise
T2 chain: T1 sequence with T47A

[3] = biological target: T1, CD155 Mut (high-affinity mutant variant …); remark: listed apart in the source

B1: Recombinant human CD226-Immunoglobulin chimeric protein (Fc fusion)
chain: EEVLWHTSVPFAENMSLECVYPSMGILTQVEWFKIGTQQDSIAIFSPTHGMVIRKPYAERVYFLNSTMASNNMTLFFRNASEDDVGYYSCSLYTYPQGTWQKVIQVVQSDSFEAAVPSNSHIVSEPGKNVTLTCQPQMTWPVQAVRWEKIQPRQIDLLTYCNLVHGRNFTSKFPRQIVSNCSHGRWSVIVIPDVTVSDSGLYRCYLQASAGENETFVMRLTVAEGKTDNQYTLFVA
modifications: Alexa Fluor 594 (Zenon human IgG labeling kit)
[1]
  fold binding (AUC) against the CD155 WT sBC line: 1.29 fold

B2: Recombinant human TIGIT-Immunoglobulin chimeric protein, Q495A1 22-141 (Fc fusion)
chain: MMTGTIETTGNISAEKGGSIILQCHLSSTTAQVTQVNWEQQDQLLAICNADLGWHISPSFKDRVAPGPGLGLTLQSLTVNDTGEYFCIYHTYPDGTYTGRIFLEVLESSVAEHGARFQIP
modifications: here or on the partner: Alexa Fluor 594 (Zenon human IgG labeling kit)
[2]
  fold binding (AUC) against parental Mel1 hPSC: 4.25 fold

B3: Recombinant human TIGIT-Immunoglobulin chimeric protein (Fc fusion)
chain: B2 chain
modifications: Alexa Fluor 594 (Zenon human IgG labeling kit)
[1]
  fold binding (AUC) against the CD155 WT sBC line: 1.37 fold
[3]
  fold binding (AUC) against parental Mel1 hPSC: 6.47 fold
  fold binding (AUC) against the CD155 WT hPSC line: 1.52 fold
